Measurements: paper PMC4978918

Columns and labels:
Test in all cases: co-IP; anti-V5 IP of Scc4-3V5 or scc4-RID-3V5 from yeast extracts, cells at midlog phase in YPD at 23°, IPH50 buffer (50 mM Tris pH 8.0, 50 mM NaCl, 5 mM EDTA, 0.5% NP-40), 4°; blot with anti-Myc (Scc2) or anti-HA (Smc1)
[1] = target: scc4-L490ins-3V5 (S. cerevisiae) (UniProt P40090)
[2] = target: scc4-V485ins-3V5 (S. cerevisiae) (UniProt P40090)
[3] = target: scc4-L305ins-3V5 (S. cerevisiae) (UniProt P40090)
[4] = target: scc4-S505ins-3V5 (S. cerevisiae) (UniProt P40090)

co-precipitation, percent of the wild-type level [1]: 50% | co-precipitation, percent of the wild-type level [2]: 50% | co-precipitation, percent of the wild-type level [3]: 50% | co-precipitation, percent of the wild-type level [4]: 50%
B1: Scc2-12Myc (natural protein)
chain: MSYPGKDKNIPGRIIEALEDLPLSYLVPKDGLAALVNAPMRVSLPFDKTIFTSADDGRDVNINVLGTANSTTSSIKNEAEKERLVFKRPSNFTSSANSVDYVPTNFLEGLSPLAQSVLSTHKGLNDSINIEKKSEIVSRPEAKHKLESVTSNAGNLSFNDNSSNKKTKTSTGVTMTQANLAEQYLNDLKNILDIVGFDQNSAEIGNIEYWLQLPNKKFVLTTNCLTKLQMTIKNITDNPQLSNSIEITWLLRLLDVMVCNIKFSKSSLKMGLDDSMLRYIALLSTIVLFNIFLLGKNDSNLHRESYIMEPVNFLSDLIESLKILTIEYGSLKIEFDTFQEALELLPKYIRNGPFLDDNVTAKLVYIFSDLLMNNDIEATTNIQFQSFWDNVKRISSDILVSLFGSFDQQRGFIIEELLSHIEKLPTKRIQKKLRKVGNQNIYITDFTFTLMSMLENINCYSFCNQMKDIAPENIDLLKNEYKKQEEFLFNIVEHINDTILERFFKNPSALRYVIDNFVQDLLLLISSPQWPVTEKILSSLLKRLLSVYSPSMQVSANIETICLQLIGNIGSTIFDIKCSTRDHEDNNLIKMINYPETLPHFFKSFEECIAYNETIKCRRSATRFLWNLRLGTILILEEYTKDAKEQIITVDNELKKILEQIKDGGLGPELENREADFSTIKLDYFSILHAFELLNLYDPYLKLILSLLAKDKIKLRSTAIKCLSMLASKDKVILSNPMVKETIHRRLNDSSASVKDAILDLVSINSSYFEFYQQINNNYNDDSIMVRKHVLRINEKMYDETNDIVTKVYVIARILMKIEDEEDNIIDMARLILLNRWILKVHEVLDQPEKLKEISSSVLLVMSRVAIMNEKCSQLFDLFLNFYLLNKEAHSKEAYDKITHVLTILTDFLVQKIVELNSDDTNEKNSIVDKQNFLNLLAKFADSTVSFLTKDHITALYPYMVSDEKSDFHYYILQVFRCTFEKLANFKQKFLYDLETTLLSRLPKMNVREIDEAMPLIWSVATHRHDTARVAKACSSCLSHLHPYINKANNEEAAIVVDGKLQRLIYLSTGFARFCFPKPSNDKIAFLQEGETLYEHITKCLLVLSKDKITHVIRRVAVKNLTKLCGNHPKLFNSRHVLHLLDKEFQSDQLDIKLVILESLYDLFLLEERKSVRNTGVNSTLSSNSILKKKLLKTNRVEFANDGVCSALATRFLDNILQLCLLRDLKNSLVAIRLLKLILKFGYTNPSHSIPTVIALFASTSQYIRHVAYELLEDLFEKYETLVFSSLSRGVTKAIHYSIHTDEKYYYKHDHFLSLLEKLCGTGKKNGPKFFKVLKRIMQSYLDDITDLTSTNSSVQKSIFVLCTNISNITFVSQYDLVSLLKTIDLTTDRLKEVIMDEIGDNVSSLSVSEEKLSGIILIQLSLQDLGTYLLHLYGLRDDVLLLDIVEESELKNKQLPAKKPDISKFSAQLENIEQYSSNGKLLTYFRKHVKDT
